Results as given in patent US9480726B2, “Leukotoxin E/D as a new anti-inflammatory agent and microbicide” (New York University, priority 2011, dated 2016).

What was measured:
CCR5^+ Jurkat cells [1] = experiment: Blocking of LukE/D cytotoxicity by CCR5 antagonists, antibodies and ligands, CellTiter; type: cell-based, human; details: CCR5^+ Jurkat preincubated 30 minutes, then LukE/D, read 1 hour post-intoxication
Experimental: One hour post-intoxication, the viability of the cells was determined by CellTiter. […] One hour post-intoxication, the viability of the cells was determined by CellTiter. Results represent the average of triplicate samples±S.D.
To determine if targeting CCR5 blocks LukE/D, the effect of several CCR5 antagonist and ligands on the ability of LukE/D to kill CCR5^+ cells was evaluated. […] In addition, the potential of monoclonal antibodies directed against CCR5 to protect cells from LukE/D cytotoxicity was also evaluated following the experimental protocol described for the CCR5 antagonist. […] Lastly, the potential inhibitory effect of natural ligands of CCR5 was also evaluated. […] Collectively, these findings indicate that the potent cytotoxic activity of LukE/D could be blocked by employing CCR5 antagonist and/or ligands.

[2] = test system: primary human macrophages; experiment: LukE/D cytotoxicity towards primary phagocytes, percent death by flow cytometry; details: 1 hour post-intoxication
Experimental: (§1) Cells were then stained with an anti-CCR5 antibody and a viability dye prior analysis by flow cytometry. […] One hour post-intoxication, the percent death was determined by flow cytometry.
(§2) In addition to T lymphocytes, the cytotoxic activity of LukE/D towards primary human macrophages and dendritic cells was also evaluated.

[3] = test system: primary human dendritic cells; experiment: as above; details: 1 hour post-intoxication
Experimental: as §1, §2

[4] = test system: Primary human T lymphocytes from CCR5^+ donor; experiment: LukE/D intoxication of primary T lymphocytes, viability by flow cytometry; type: cell-based; details: 5.4% in media treated cells
Experimental: as §1
(§3) If CCR5 is the receptor of LukE/D, then primary host cells that their surfaces are decorated with CCR5 (e.g., T lymphocytes, macrophages, natural killer cells, dendritic cells, etc.) will be susceptible to LukE/D mediated cell death. To investigate this in more detail, primary human peripheral blood mononuclear cells (PBMC) were isolated from a wild type CCR5 (CCR5^+) donor and a Δ32CCR5 (CCR5^−) donor and the T lymphocytes expanded followed by intoxication with LukE/D and the viability of the cells determined by flow cytometry.

[5] = test system: T lymphocytes from the Δ32CCR5 donor; experiment: as above; details: T lymphocytes of Δ32CCR5 (CCR5^−) donor
Experimental: as §1, §3

Jurkat cells = experiment: LukE/D cytotoxicity, cell viability by CellTiter; type: cell-based, human; details: 1 hour post-intoxication
Experimental: (§4) Cytotoxicity was determined by a cell viability assay where indicated human immune cells lines were intoxicated with different concentrations of an equimolar mixture of LukE+LukD (LukE/D). Cell viability was monitored 1 hour post-intoxication using CellTiter, where cells treated with medium were set at 100% viable. Results represent the average of triplicate samples±S.D. FIG. 2B depicts that LukE/D kills Hut cell but not other human T lymphocyte-like cell lines. Indicated cell lines were intoxicated with different concentrations of an equimolar mixture of LukE+LukD (LukE/D) and cell viability monitored as in FIG. 2A. Results represent the average of triplicate samples±S.D.
(§5) One mechanism by which LukE/D could be blocked is by inhibiting the interaction of the toxin with its receptor. As an initial strategy to understand how LukE/D interact with host cells, a collection of human immune cell lines were incubated (“intoxicated”) with different concentrations of either individual subunits (i.e., LukE or LukD) or an equimolar mixture of LukE+LukD (LukE/D). […] Upon further investigation, it was discovered that the Hut cells employed the experiments described above have been engineered to over-express the CC-chemokine receptor 5 (CCR5), a receptor for the chemokines MIP-1α, MIP-1β, and RANTES.

[6] = test system: Hut cells (T lymphocyte-like cells); experiment: LukE/D cytotoxicity, cell viability by CellTiter; type: cell-based, human; details: Hut cells (over-express CCR5), 1 hour post-intoxication
Experimental: as §4, §5

H9 = experiment: LukE/D cytotoxicity, cell viability by CellTiter; type: cell-based, human; details: H9 lymphocyte cell line
Experimental: as §4, §5

PM1 = experiment: LukE/D cytotoxicity, cell viability by CellTiter; type: cell-based, human; details: PM1 lymphocyte cell line
Experimental: as §4, §5

CCR5^+ Jurkat cells [7] = experiment: Binding of GFP-fused LukE/D toxin to plasma membrane, flow cytometry; parameters: species or system human
Experimental: (§6) To elucidate the mechanism by which LukE/D utilizes CCR5 to target and kill host cells, Jurkat (CCR5^−) and CCR5^+ Jurkat (CCR5^+) cells were incubated with a GFP-fused LukE/D toxin (^GFPLukE/D) and binding of the fluorescent toxin to the plasma membrane of the cells monitored by flow cytometry.

[8] = test system: parental CCR5^− Jurkat cells; experiment: as above; parameters: species or system human
Experimental: as §6

CCR5^+ Jurkat = experiment: LukE/D cytotoxicity towards CCR5-transduced cells, CellTiter; type: cell-based, human; details: Jurkat transduced with CCR5 cDNA, 1 hour post-intoxication
Text: FIG. 3 illustrates that the chemokine receptor CCR5 is necessary and sufficient to renders mammalian cells susceptible to LukE/D mediated cytotoxicity. Parental Jurkat (top, left) and GHOST cells (bottom, left) or these cells transduced with a CCR5 cDNA (Jurkat CCR5^+, top/right; GHOST CCR5^+, bottom/right), were intoxicated with LukE, LukD, or equimolar mixture of LukE+LukD (LukE/D). One hour post-intoxication cell viability was monitored with CellTiter, where cells treated with medium were set at 100% viable. Results represent the average of triplicate samples±S.D.
To directly determine the contribution of CCR5 for the ability of LukE/D to target and kill host cells, CCR5 was introduced into Jurkat cells by viral transduction of the CCR5 cDNA resulting in CCR5^+ Jurkat. Jurkat and CCR5^+ Jurkat cells were subsequently intoxicated with different concentrations of either individual subunits (i.e., LukE or LukD) or equimolar mixtures of LukE+LukD (LukE/D).

[9] = test system: THP1 cells (human monocytes); experiment: LukE/D cytotoxicity, cell viability by CellTiter; type: cell-based; details: 1 hour post-intoxication
Experimental: as §4, §5

CCR5^+ Jurkat cells [10] = experiment: LukE/D pore formation, ethidium bromide incorporation and microscopy; type: cell-based, human
Experimental: Binding of the toxin to the plasma membrane of the cells was monitored via flow cytometry. […] Pore formation was measured over-time by monitoring ethidium bromide incorporation. […] Intoxicated cells were monitored by light (top panels) and by fluorescence microscopy to determine ethidium bromide uptake. Representative images are shown.

In the case of `Cc1ccc(-c2ccc3c(c2)C=C(C(=O)Nc2ccc(C[N+](C)(C)C4CCOCC4)cc2)CCC3)cc1.[Cl-]` [TAK-779], the “blocking of LukE/D mediated cytotoxicity” value (CCR5^+ Jurkat cells [1]) is reported as “potently blocked”.

In the case of `COC[C@@H](c1ccc(C(F)(F)F)cc1)N1CCN(C2(C)CCN(C(=O)c3c(C)ncnc3C)CC2)C[C@@H]1C` [Vicriviroc], the “blocking of LukE/D mediated cytotoxicity” value (CCR5^+ Jurkat cells [1]) is reported as “potently blocked”.

In the case of “LukD: S. aureus Leukocidin D protein subunit, SEQ ID NOs: 12-22”, the “cytotoxic activity (killing)” value [2] is reported as “not LukD potently killed” and the “cytotoxic activity (killing)” value [3] is reported as “not LukD potently killed”.

For LukE/D, the cell death [4] was 34%, the LukE/D mediated cytotoxicity [5] was “highly refractory” and the cytotoxicity (Jurkat cells) was “not towards Jurkat cells”. The cytotoxicity [6] was “exhibits cytotoxicity”, the cytotoxicity (H9) was “only the Hut cells were susceptible” and the cytotoxicity (PM1) was “only the Hut cells were susceptible”. For the same molecule, the “binding of toxin to plasma membrane” value (CCR5^+ Jurkat cells [7]; GFP-fused LukE/D, CCR5^+ Jurkat) was “binds”, the “binding of toxin to plasma membrane” value [8] was “not to the parental CCR5^− Jurkat cells” and the LukE/D mediated toxicity (CCR5^+ Jurkat) was “susceptible”. The cytotoxicity [9] was “exhibits cytotoxicity”, the “cytotoxic activity (killing)” value [2] was “potently killed” and the “cytotoxic activity (killing)” value [3] was “potently killed”. For the same molecule, the “pore formation in plasma membrane” value (CCR5^+ Jurkat cells [10]; ethidium bromide incorporation over time) was “forms pores” and the cell swelling (CCR5^+ Jurkat cells [10]; light and fluorescence microscopy) was “associated with cell swelling”.

In the case of Maraviroc [reference compound], the “inhibition of LukE/D binding to cells” value (CCR5^+ Jurkat cells [7]; CCR5^+ Jurkat pre-incubated with Maraviroc, then GFP-labeled LukE/D) is reported as “potently inhibited”, the “blocking of LukE/D mediated pore formation” value (CCR5^+ Jurkat cells [10]; pre-incubation with Maraviroc, ethidium bromide incorporation) is reported as “potently blocked” and the “blocking of LukE/D cell swelling” value (CCR5^+ Jurkat cells [10]; pre-incubation with Maraviroc, microscopy) is reported as “fully blocked”.

With “RANTES: natural ligand (chemokine) of CCR5” the “blocking of LukE/D mediated cytotoxicity” value (CCR5^+ Jurkat cells [1]) was “potently inhibit”.

B1: MIP-1β: natural ligand (chemokine) of CCR5 (protein)
chain: APMGSDPPTACCFSYTARKLPRNFVVDYYETSSLCSQPAVVFQTKRSKQVCADPSESWVQEYVYDLELN
For B1, the “blocking of LukE/D mediated cytotoxicity” value (CCR5^+ Jurkat cells [1]) was “potently inhibit”.
